Experimental data taken from patent US20230382948A1, “DELIVERY OF ENDOTHELIAL CELL-LADEN MICROGEL ELICITS ANGIOGENESIS IN SELF-ASSEMBLING ULTRASHORT PEPTIDE HYDROGELS” (KING ABDULLAH UNIVERSITY OF SCIENCE AND TECHNOLOGY, priority 2020, published 2023).

What was measured:
Assay type in all cases: physicochemical
[1] = Microgel stability under cell culture procedures; details: for Microgel size and shape stability: autoclaving, UV irradiation, trypsinization, rocking, 37 and 22° C.
Procedure: A 400 μL amount of microgels was diluted in 6 mL of DMEM, and aliquots of 1 mL were seeded in five 35 mm plastic Petri dishes and one 40 mm glass Petri dish. Each dish containing microgels was treated as follows: (1) Autoclaving at 121° C. for 20 min using the glass dish, (2) UV irradiation for 30 min, and (3) 0.125% trypsin-EDTA at 37° C. for 5 min. In addition, the remaining dishes containing microgels were treated for 16-18 days as follows: (4) 37° C., 95% humidity, and 5% CO2, (5) 37° C., 95% humidity, and 5% CO2 under rocker conditions at 30 rpm, and (6) 22° C. on a shelf. Microgel imaging was done before treatment and follow up every other day. FIG. 31 summarizes the experimental design.
(§1) Microgel imaging was done at each condition and time point using a CLSM Zeiss® 710 or 880 by tile scanning with 15% overlapping and online stitching to capture as many microgels as possible from the dish. The Feret diameter and roundness of each microgel was calculated using ImageJ software by manually drawing up to 59 microgel contours per condition. All statistical data analysis and microgel descriptor plotting were conducted in Origin software. To assess the effect of the treatments on the microgel diameter and roundness, a Kruskal—Wallis test with Posthoc test pairwise Mann—Whitney U tests was applied.

[2] = Microgel fabrication by flow-focusing microfluidics, microgel imaging (diameter, roundness); details: for Microgel average diameter: SUP solution 1.5 wt %, oil with Span 80 (2%) and sodium chloride
Procedure: Since the microgels are intended to be cell carriers, the fabrication materials were sterilized before use when possible and handled aseptically inside a biosafety cabinet (BSC) to reduce contamination risk. Milli-Q® water and hexadecane were sterilized by autoclaving at 121° C. for 20 min. Light mineral oil was sterilized by dry heating at 160° C. for 1 h. Peptide powder and sodium chloride were sterilized by UV irradiation (GE® germicidal lamp 30 W) for 30 min inside BSC. Once sterile, the peptide powder was dissolved to 27.1 mM (15 mg/mL) in sterile Milli-Q® water by vortexing for 5 min and incubated at room temperature (22° C.) for 1 h (preassembly). Span 80 was dissolved to 2% (v/v) into light mineral oil and hexadecane, independently. Sodium chloride was added to the light mineral oil+Span 80 mix and shaked to disperse the sodium chloride crystals. The peptide solution was loaded in a 1 mL syringe, while the light mineral oil with Span 80 2% (v/v) and sodium chloride 3 mg/mL were loaded in a 3 mL syringe. Both syringes were connected with the microfluidic system, and both solutions were brought to the droplet generator point by pressing the syringes manually. Then, both syringes were inserted into the pumps, and the flow rate was set at 10 μL/min for continuous phase (light mineral oil with Span 80 and sodium chloride) and 1 μL/min for dispersed phase (peptide solution). Droplet generation was monitored by on-site bright-field microscopy, and once it was stable and continuous, the droplets were collected in a tube containing light mineral oil with Span 80 2% (v/v). To confirm peptide droplet gelation, FluoSpheres® or QD were sometimes incorporated into the peptide solution during the preassembly incubation. Microgels were isolated from oil adding the same volume of hexadecane containing Span 80 (2% v/v) and centrifuged at 10 g for 5 min, and the oil layer was discarded. Microgels were washed with hexadecane plus Span 80 (2% v/v) two more times, discarding the hexadecane layer. A volume of DPBS containing Tween 20 (10% v/v) was gently added on the microgels through the collection tube walls and removed after 5 min. DPBS—Tween 20 washing was repeated 2 more times, decreasing the Tween 20 content to 1% v/v and 0.1% v/v sequentially. Finally, 250μL of DPBS was added on the microgels to keep them soaked, and they were kept on a shelf (22° C.) until further use. The microgel shape and size were checked by confocal laser scanning microscopy (CLSM).
as §1

[3] = Rheological characterization of SUP bulk hydrogels
Procedure: The mechanical stiffness of the peptide hydrogels was analyzed using a TA Ares-G2 Rheometer equipped with parallel-plate geometries of 8 mm diameter at room temperature. The sample gap between the upper and the lower geometries was set at 1.8 mm. The hydrogels were prepared from 135 μL of peptide solution that was mixed with 15 μL of 10×PBS in an 8 mm i.d. poly(methyl methacrylate) (PMMA) casting ring and left for 1 day before measurement. The rings were kept inside Petri dishes at room temperature with water surrounding them and tightly sealed to avoid dehydration. To control the accuracy of the measurements, six replicates for each peptide hydrogel were prepared. The stiffness was analyzed through three successive tests, which were time sweep, frequency sweep, and amplitude sweep. Time sweep was first performed for 5 min with an angular frequency and a strain of 1 rad/s and 0.1%, respectively. A frequency sweep was subsequently performed on the sample for a range of angular frequency of 0.1-100 rad/s with the same strain of 0.1%. The tests were completed with the amplitude sweep by applying a gradual increase of strain […] at 1 rad/s angular frequency.

[4] = after extraction to the aqueous phase (PBS)
[5] = 22 C. at day 0, 2, 4, 10, 12, 14, 16, 18, the 5th table
[6] = 22 C. at day 0, 2, 4, 10, 12, 14, 16, the 4th table
[7] = 22 C., Autoclaving, UV and Trypsin, the 4th table
[8] = 22 C., Autoclaving, UV and Trypsin, the 5th table
[9] = 37 C. at day 0, 2, 4, 10, 12, 14, 16, 18, the 5th table
[10] = 37 C. at day 0, 2, 4, 10, 12, 14, 16, the 4th table
[11] = 37 C. at day 0, 2, 4, 16, 12, 14, 16, 18, the 5th table
[12] = 37 C. with rocking at day 0, 2, 4, 10, 12, 14, 16, 18, the 5th table
[13] = 37 C. with rocking at day 0, 2, 4, 10, 12, 14, 16, the 4th table
[14] = 37 C. with rocking at day 0, 2, 4, 10, 12, 14, 36, 18, the 5th table

Substance: Ac-Ile-Val-Cha-Lys-NH2 (IVXK; HELM PEPTIDE1{[ac].I.V.[Cha].K.[am]}$$$$V2.0; SMILES CC[C@H](C)[C@H](NC(C)=O)C(=O)N[C@H](C(=O)N[C@@H](CC1CCCCC1)C(=O)N[C@@H](CCCCN)C(N)=O)C(C)C) [IVZK, self-assembling ultrashort tetrapeptide, Z = cyclohexylalanine, forms hydrogels and microgels]
- Microgel size and shape stability [1]: maintain their size and shape
- Microgel swelling on extraction from the oil phase to the aqueous phase [2]: not
- Microgel average diameter [2]: 350 μm
- Microgel roundness, average [2, 4]: 0.88
- Microgel roundness, average ([2]; in oil): 0.98
- Mechanical stiffness of hydrogel, comparison ([3]; IVZK versus IVFK hydrogels, FIG. 15): higher stiffness

Substance: Ac-Ile-Val-Phe-Lys-NH2 (Ac-IVFK-NH2) [self-assembling ultrashort tetrapeptide, forms hydrogels and microgels]
- X2 (Kruskal-Wallis), microgel diameter [1, 5]: 10.76
- X2 (Kruskal-Wallis), microgel roundness [1, 5]: 7.72
- p (Kruskal-Wallis), microgel diameter [1, 5]: >0.05
- p (Kruskal-Wallis), microgel roundness [1, 5]: >0.05
- X2 (Kruskal-Wallis), microgel diameter [1, 6]: 1.69
- X2 (Kruskal-Wallis), microgel roundness [1, 6]: 1.65
- p (Kruskal-Wallis), microgel diameter [1, 6]: >0.05
- p (Kruskal-Wallis), microgel roundness [1, 6]: >0.05
- X2 (Kruskal-Wallis), microgel diameter [1, 7]: 3.99
- X2 (Kruskal-Wallis), microgel roundness [1, 7]: 6.48
- p (Kruskal-Wallis), microgel diameter [1, 7]: >0.05
- p (Kruskal-Wallis), microgel roundness [1, 7]: >0.05
- X2 (Kruskal-Wallis), microgel diameter [1, 8]: 5.61
- X2 (Kruskal-Wallis), microgel roundness [1, 8]: 1.82
- p (Kruskal-Wallis), microgel diameter [1, 8]: >0.05
- p (Kruskal-Wallis), microgel roundness [1, 8]: >0.05
- X2 (Kruskal-Wallis), microgel roundness [1, 9]: 12.93
- p (Kruskal-Wallis), microgel roundness [1, 9]: >0.05
- X2 (Kruskal-Wallis), microgel diameter [1, 10]: 1.28
- X2 (Kruskal-Wallis), microgel roundness [1, 10]: 7.52
- p (Kruskal-Wallis), microgel diameter [1, 10]: >0.05
- p (Kruskal-Wallis), microgel roundness [1, 10]: >0.05
- X2 (Kruskal-Wallis), microgel diameter [1, 11]: 13.16
- p (Kruskal-Wallis), microgel diameter [1, 11]: >0.05
- p (Kruskal-Wallis), microgel diameter ([1]; 37 C. with mocking at day 0, 2, 4, 10, 12, 14, 16, the 4th table): >0.05
- X2 (Kruskal-Wallis), microgel diameter [1, 12]: 10.89
- p (Kruskal-Wallis), microgel diameter [1, 12]: >0.05
- X2 (Kruskal-Wallis), microgel diameter [1, 13]: 5.81
- X2 (Kruskal-Wallis), microgel roundness [1, 13]: 3.62
- p (Kruskal-Wallis), microgel roundness [1, 13]: >0.05
- X2 (Kruskal-Wallis), microgel roundness [1, 14]: 4.28
- p (Kruskal-Wallis), microgel roundness [1, 14]: >0.05
- Microgel size and shape stability [1]: maintain their size and shape
- Microgel swelling on extraction from the oil phase to the aqueous phase [2]: 50 μm
- Minimum concentration with many intact microgels after isolation in the aqueous phase [2]: 0.8 wt %
- Microgel average diameter [2]: 300 μm
- Microgel roundness, average [2, 4]: 0.88
- Microgel roundness, average ([2]; in oil): 0.98
- Linear viscoelastic (LVE) region of hydrogel, comparison ([3]; amplitude sweep, IVFK versus IVZK, FIGS. 18 and 19): wider
